Assay results from US20210380703A1 (RIGEL PHARMACEUTICALS, published 2021).
Positions count from the first letter of the chain named.

B1: 365_E05 (antibody, V domains shown)
VH: EVQLLESGGGLVQPGGSLRLSCAASGFTFSSYGMHWVRQAPGKGLEWVAGINYNGGYTSYADSVKGRFTISRDNSKNTLYLQMNSLRAEDTAVYYCARSANWHDTALDYWGQGTLVTVSS
VL: DIQMTQSPSSLSASVGDRVTITCRASQSIVSYVNWYQQKPGKAPKLLIYAATSLASGVPSRFSGSGSGTDFTLTISSLQPEDFATYYCQQSYDNPLTFGGGTKVEIK
B2: 366_B12 (antibody, V domains shown)
VH: B1 VH with G33S, H35N, G55S, T58K, S59G
VL: B1 VL with V30L, S31T, L54R
B3: 372_F08 (antibody, V domains shown)
VH: B1 VH with S31D, G33S, H35N, A49S, G50N, G55S, S59G
VL: B1 VL with V30L, S31T, L47V, L54R, N94T
B4: 369_F01 (antibody, V domains shown)
VH: B1 VH with H35N, A49S, T58K
VL: B1 VL with V30L, S31T, L54R, D93E, N94L
B5: 369_G01 (antibody, V domains shown)
VH: B1 VH with G33S, H35N, A49S, G50N, G55S, T58K
VL: B1 VL with V30L, L54R, D93S, N94S
B6: 370_E09 (antibody, V domains shown)
VH: B1 VH with S30D, S31D, Y32S, G33S, A49S, G50N, S59G, R98K
VL: B1 VL with V30L, L47V, L54R, D93E, N94L
B7: 369_D02 (antibody, V domains shown)
VH: B1 VH with S31D, G33S, H35N, A49S, G50N, G55S, S59G
VL: B1 VL with V30L, V33L, L47V, A51V, L54R, N94T
B8: 374_C06 (antibody, V domains shown)
VH: B1 VH with S30D, S31D, G33S, H35N, A49S, G50S, G55S, T58K, S59G
VL: B1 VL with V30L, S31T, L54R, D93N, N94S
B9: 368_D10 (antibody, V domains shown)
VH: B1 VH with S30D, H35N, G55S, N101T
VL: B1 VL with V30L, V33L, L47V, L54R, N94S
B10: 370_C05 (antibody, V domains shown)
VH: B1 VH with G33S, H35N, G55S, S59G
VL: B1 VL with V30L, L47V, L54R, D93N, N94S
B11: 373_A10 (antibody, V domains shown)
VH: B1 VH with H35N, A49S, G55S
VL: B1 VL with V30L, V33L, L47V, L54R, N94L
B12: 370_A12 (antibody, V domains shown)
VH: B1 VH with H35N
VL: B1 VL with V30L, S31T, V33L, N94S
B13: 365_E07 (antibody, V domains shown)
VH: B1 VH with S30D, A49S, G55S, R98K, A106H
VL: B1 VL with V30L, V33L, L54R
B14: 374_D08 (antibody, V domains shown)
VH: B1 VH with S30D, H35N, A49S, G55S, S59G, A106H
VL: B1 VL with V30L, S31T, V33L, L54R, A55H, D93E, N94S
B15: 371_B07 (antibody, V domains shown)
VH: B1 VH with S30D, G33S, H35N
VL: B1 VL with V30L, S31T, L54R, D93E, N94L
B16: 370_H01 (antibody, V domains shown)
VH: B1 VH with G33S, H35N, A49S, G55S, T58K, S59G
VL: B1 VL with V30I, V33L, A51V, L54R, N94T
B17: 365_E02 (antibody, V domains shown)
VH: B1 VH with G33S, H35N, G50N, R98K, N101T, A106H
VL: B1 VL with V30I, V33L, L54R, D93E
B18: 370_C03 (antibody, V domains shown)
VH: B1 VH with H35N, T58K, S59G
VL: B1 VL with V30L, S31T, V33L, A50Y, A51V, S53N, L54R, A55Q, D93S, N94S
B19: 374_B06 (antibody, V domains shown)
VH: B1 VH with S30D, G33S, H35N, G55S, T58K, S59G, A106H
VL: B1 VL with V30L, S31T, L54R, N94T
B20: 373_C02 (antibody, V domains shown)
VH: B1 VH with S30D, S31D, G33S, H35N, A49S, G55S, T58K, S59G
VL: B1 VL with V30L, L54R, D93N, N94T
B21: 367_H06 (antibody, V domains shown)
VH: B1 VH with H35N, A49S, G50N, S59G, A106H
VL: B1 VL with V30I, S31T, V33L, L54R, N94T
B22: 365_A12 (antibody, V domains shown)
VH: B1 VH with R98K, A106H
VL: B1 VL with V30L, S31T, L54R, A55H, D93E
B23: 370_D04 (antibody, V domains shown)
VH: B1 VH with S30D, G33S, H35N, G50N, G55S, T58K, S59G
VL: B1 VL with V30L, S31T, V33L, L47V, L54R
B24: 374_G05 (antibody, V domains shown)
VH: B1 VH with G33S, H35N, A49S, G50N, G55S, T58K, S59G, S99G, N101T, A106H
VL: B1 VL with V30I, V33L, L54R, N94L
B25: 373_D04 (antibody, V domains shown)
VH: B1 VH with S30D, G33S, H35N, A49S, G55S, T58K, S59G
VL: B1 VL with V30L, V33L, L54R, A55H, N94S
B26: 374_C10 (antibody, V domains shown)
VH: B1 VH with G33S, H35N, A49S, G50S, T58K, S59G, S99G, N101T, A106H
VL: B1 VL with S31T, V33L, D93N, N94T
B27: 367_H11 (antibody, V domains shown)
VH: B1 VH with H35N, T58K, S59G
VL: B1 VL with V30I, L47V, L54R, D93N, N94S
B28: 368_F03 (antibody, V domains shown)
VH: B1 VH with S30D, G33S, H35N, G55S, S59G, R98K
VL: B1 VL with V30I, V33L, L47V, L54R, A55H, N94S
B29: 373_D10 (antibody, V domains shown)
VH: B1 VH with S30D, G33S, H35N, A49S, G50N, G55S, T58K, S59G
VL: B1 VL with V30L, L54R, N94L
B30: 369_H06 (antibody, V domains shown)
VH: B1 VH with H35N, G50N, T58K
VL: B1 VL with L54R, N94T

Molecular target: ACVR2A on primary human myotubes (human, UniProt P27037 20-513)
Assay: cell-based or functional assay

Chain of ACVR2A on primary human myotubes (P27037 20-513): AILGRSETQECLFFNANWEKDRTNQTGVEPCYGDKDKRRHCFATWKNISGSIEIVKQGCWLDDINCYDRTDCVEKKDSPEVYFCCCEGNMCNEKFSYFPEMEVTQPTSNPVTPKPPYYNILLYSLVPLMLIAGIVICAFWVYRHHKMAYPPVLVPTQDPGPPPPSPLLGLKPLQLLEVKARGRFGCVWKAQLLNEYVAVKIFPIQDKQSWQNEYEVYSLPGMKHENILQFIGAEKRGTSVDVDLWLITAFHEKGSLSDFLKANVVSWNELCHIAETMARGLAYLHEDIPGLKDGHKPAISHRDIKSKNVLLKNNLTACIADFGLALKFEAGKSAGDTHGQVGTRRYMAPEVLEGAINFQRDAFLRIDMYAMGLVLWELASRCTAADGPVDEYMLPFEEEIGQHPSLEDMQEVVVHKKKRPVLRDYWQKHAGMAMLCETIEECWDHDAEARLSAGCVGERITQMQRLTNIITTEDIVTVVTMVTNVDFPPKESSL

Binder | Phospho-SMAD3 Human Skeletal Muscle GDF8
B1 | 0.244
B2 | 0.0392
B3 | 0.023
B4 | 0.0317
B5 | 0.0116
B6 | 0.0093
B7 | 0.0135
B8 | 0.0138
B9 | 0.0601
B10 | 0.0082
B11 | 0.0111
B12 | 0.0632
B13 | 0.518
B14 | 0.23
B15 | 0.0402
B16 | 0.0093
B17 | 0.341
B18 | 0.0029
B19 | 0.0407
B20 | 0.0083
B21 | 0.108
B22 | 0.903
B23 | 0.0074
B24 | 0.0132
B25 | 0.0078
B26 | 0.0582
B27 | 0.0703
B28 | 0.812
B29 | 0.006
B30 | 0.0068
